Data taken from patent US20090311248A1 (published 2009).

B1: 17H1 (antibody, V domains shown)
VH: QVQFVQSGAEVKKPGASVKVSCKASGYTFTRHAIHWVRQAPGQRLEWMGWINPGNGNAKYSQKFQGRVTITRDTPASTVYMELSSLRSEDMGVYYCARDGGYSHDYSYFYGLDVWGPGTTVIVSS
VL: QSVLTQPPSASGTPGQRVTISCSGSSSNIGGNFVDWYQQFPGTAPKLLIYTNDQRPSGVPARFSGSKSGTSASLAISGLRSEDEADYYCAAWDDIVNGWVFGGGTKLTVRG
notes: also called 17H1D9; IGH 520
B2: 48G5 (antibody, V domains shown)
VH: QVQLVQSGAEVKRPGASVKVSCKASGYTFTSYAIHWVRQAPGQRLEWMGWINPGNGNAKYSQRFQGRVIISRDTSATTSYMELSSLTSEDTAVYSCARDRGFDLLTGHYLGLDPWGQGTLVTVSS
VL: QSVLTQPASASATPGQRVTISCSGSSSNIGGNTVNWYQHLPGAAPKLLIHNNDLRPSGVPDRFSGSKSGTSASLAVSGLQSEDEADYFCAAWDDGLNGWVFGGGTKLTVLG
notes: also called 48G5C4; IGH 526

Legend:
[1] = molecular target: HCV E1 envelope glycoprotein of genotype 1a strain H77 on retroviral pseudoparticles (HCVpp) (Hepatitis C virus genotype 1a strain H77, UniProt P27958 1-3011); test: cell-based or functional assay
[2] = molecular target: HCV E1 envelope glycoprotein of genotype 3a (strain S52) on retroviral pseudoparticles (Hepatitis C virus genotype 3a); test: cell-based or functional assay
[3] = molecular target: HCV E1 envelope glycoprotein of genotype 6a (strain HK-6a) on retroviral pseudoparticles (Hepatitis C virus genotype 6a); test: cell-based or functional assay
[4] = molecular target: HCV E1 envelope glycoprotein of genotype 2a (pJ6CF) on retroviral pseudoparticles (Hepatitis C virus genotype 2a, UniProt P26660 1-3033); test: cell-based or functional assay
Sequence of HCV E1 envelope glycoprotein of genotype 2a (pJ6CF) on retroviral pseudoparticles (P26660 whole entry): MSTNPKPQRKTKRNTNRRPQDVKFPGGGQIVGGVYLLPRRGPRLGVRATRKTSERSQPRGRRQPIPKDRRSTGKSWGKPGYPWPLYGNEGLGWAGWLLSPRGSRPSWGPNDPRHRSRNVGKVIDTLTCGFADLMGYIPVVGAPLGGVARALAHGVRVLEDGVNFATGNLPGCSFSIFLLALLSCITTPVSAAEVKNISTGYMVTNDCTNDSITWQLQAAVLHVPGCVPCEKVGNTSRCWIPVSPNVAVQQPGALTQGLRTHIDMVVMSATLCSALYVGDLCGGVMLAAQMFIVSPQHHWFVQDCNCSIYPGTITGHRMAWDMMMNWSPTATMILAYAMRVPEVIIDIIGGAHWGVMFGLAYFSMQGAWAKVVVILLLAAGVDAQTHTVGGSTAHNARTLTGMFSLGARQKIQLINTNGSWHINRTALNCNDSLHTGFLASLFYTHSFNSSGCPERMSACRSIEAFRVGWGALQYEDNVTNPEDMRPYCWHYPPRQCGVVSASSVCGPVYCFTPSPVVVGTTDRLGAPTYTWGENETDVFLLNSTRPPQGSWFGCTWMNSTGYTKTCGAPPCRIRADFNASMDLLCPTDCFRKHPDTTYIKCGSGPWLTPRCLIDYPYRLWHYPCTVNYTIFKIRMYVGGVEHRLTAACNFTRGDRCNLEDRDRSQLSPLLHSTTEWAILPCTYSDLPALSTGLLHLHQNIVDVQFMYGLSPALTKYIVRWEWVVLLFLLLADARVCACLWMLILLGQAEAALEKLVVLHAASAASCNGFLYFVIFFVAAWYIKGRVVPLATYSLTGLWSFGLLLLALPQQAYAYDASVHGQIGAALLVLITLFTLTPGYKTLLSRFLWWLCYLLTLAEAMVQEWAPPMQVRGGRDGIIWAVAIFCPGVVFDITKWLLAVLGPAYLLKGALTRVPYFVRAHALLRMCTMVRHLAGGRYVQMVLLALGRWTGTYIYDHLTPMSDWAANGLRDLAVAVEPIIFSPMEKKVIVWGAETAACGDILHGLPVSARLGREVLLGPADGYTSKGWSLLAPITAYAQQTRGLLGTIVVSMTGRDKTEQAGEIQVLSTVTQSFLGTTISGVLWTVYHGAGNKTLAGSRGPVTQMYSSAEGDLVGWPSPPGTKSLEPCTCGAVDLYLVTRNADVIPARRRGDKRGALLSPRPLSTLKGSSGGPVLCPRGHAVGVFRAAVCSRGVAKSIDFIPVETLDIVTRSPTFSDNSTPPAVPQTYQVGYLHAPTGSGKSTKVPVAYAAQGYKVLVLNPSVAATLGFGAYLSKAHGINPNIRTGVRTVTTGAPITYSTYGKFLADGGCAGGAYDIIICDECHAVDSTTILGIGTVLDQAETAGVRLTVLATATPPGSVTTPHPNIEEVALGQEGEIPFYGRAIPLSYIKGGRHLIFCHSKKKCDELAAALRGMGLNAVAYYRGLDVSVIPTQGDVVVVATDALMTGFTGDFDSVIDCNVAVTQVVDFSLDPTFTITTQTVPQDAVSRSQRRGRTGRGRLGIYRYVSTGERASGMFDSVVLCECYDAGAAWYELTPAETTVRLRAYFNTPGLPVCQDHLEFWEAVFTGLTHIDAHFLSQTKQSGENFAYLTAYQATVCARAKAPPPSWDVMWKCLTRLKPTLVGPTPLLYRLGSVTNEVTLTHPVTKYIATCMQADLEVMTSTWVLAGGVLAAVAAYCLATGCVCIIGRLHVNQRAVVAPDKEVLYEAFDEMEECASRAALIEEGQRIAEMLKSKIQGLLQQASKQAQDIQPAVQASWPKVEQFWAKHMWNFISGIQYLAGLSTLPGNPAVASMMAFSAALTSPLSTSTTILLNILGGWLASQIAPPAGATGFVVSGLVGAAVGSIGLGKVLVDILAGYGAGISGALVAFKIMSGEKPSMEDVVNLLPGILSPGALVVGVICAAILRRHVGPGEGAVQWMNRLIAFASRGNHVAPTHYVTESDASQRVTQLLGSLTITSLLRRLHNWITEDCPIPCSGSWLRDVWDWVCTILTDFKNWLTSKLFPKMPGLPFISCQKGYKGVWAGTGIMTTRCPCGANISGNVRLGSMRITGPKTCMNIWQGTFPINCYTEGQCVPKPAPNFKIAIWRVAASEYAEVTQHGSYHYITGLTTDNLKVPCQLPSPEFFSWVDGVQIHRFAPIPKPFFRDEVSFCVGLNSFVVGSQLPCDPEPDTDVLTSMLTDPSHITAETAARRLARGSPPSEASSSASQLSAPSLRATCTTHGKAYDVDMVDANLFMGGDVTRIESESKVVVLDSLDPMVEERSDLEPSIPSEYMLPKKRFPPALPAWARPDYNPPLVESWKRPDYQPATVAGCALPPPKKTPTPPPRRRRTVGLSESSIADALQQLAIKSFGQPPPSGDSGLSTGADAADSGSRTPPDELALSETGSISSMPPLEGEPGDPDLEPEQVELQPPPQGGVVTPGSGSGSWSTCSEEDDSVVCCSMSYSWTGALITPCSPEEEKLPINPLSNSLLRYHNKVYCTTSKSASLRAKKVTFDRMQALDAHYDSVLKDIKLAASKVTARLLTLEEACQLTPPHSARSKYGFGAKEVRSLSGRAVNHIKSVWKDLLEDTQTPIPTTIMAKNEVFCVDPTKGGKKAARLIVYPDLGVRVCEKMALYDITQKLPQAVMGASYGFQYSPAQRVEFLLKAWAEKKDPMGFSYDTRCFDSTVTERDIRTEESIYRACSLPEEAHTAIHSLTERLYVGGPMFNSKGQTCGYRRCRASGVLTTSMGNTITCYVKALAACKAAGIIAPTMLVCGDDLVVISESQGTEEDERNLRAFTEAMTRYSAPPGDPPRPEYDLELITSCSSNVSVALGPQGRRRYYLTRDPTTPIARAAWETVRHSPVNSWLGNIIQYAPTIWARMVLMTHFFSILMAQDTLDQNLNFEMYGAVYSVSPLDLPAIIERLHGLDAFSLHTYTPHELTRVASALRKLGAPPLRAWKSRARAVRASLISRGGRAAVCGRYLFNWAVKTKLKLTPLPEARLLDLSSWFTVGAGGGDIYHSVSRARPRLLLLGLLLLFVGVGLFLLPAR

[5] = molecular target: HCV E1 envelope glycoprotein of genotype 4a (strain ED43) on retroviral pseudoparticles (Hepatitis C virus genotype 4a, UniProt O39929 1-3008); test: cell-based or functional assay
[6] = molecular target: HCV E1 envelope glycoprotein of genotype 1b (HCCl 66) on retroviral pseudoparticles (Hepatitis C virus genotype 1b); test: cell-based or functional assay
[7] = molecular target: HCV E1 envelope glycoprotein of genotype 5a (strain SA13) on retroviral pseudoparticles (Hepatitis C virus genotype 5a, UniProt O91936 1-3014); test: cell-based or functional assay
IGP 2254 = IGP 2254 (Hepatitis C virus (HCV), N-terminal Biotin; C-terminal -CONH2); test: BIAcore, antibody immobilized, peptide IGP 2254 in solution
IGP 2138 = molecular target: T1, IGP 2138 (Hepatitis C virus (HCV)); test: ELISA, […], antibody at 1.25 µg/mL
T1 construct: also called WDMMMNW

IGP 2241 = molecular target: T2, IGP 2241 (Hepatitis C virus (HCV)); test: ELISA, […], antibody at 1.25 µg/mL
T2 construct: E1 peptide

IGP 2137 = molecular target: T3, IGP 2137 (Hepatitis C virus (HCV)); test: ELISA, […], antibody at 1.25 µg/mL
T3 construct: also called RMAWDM

Binder	lowest concentration of antibody in µg/ml exhibiting at least 50% neutralization (HCVpp) [1] [µg/mL]	lowest concentration of antibody in µg/ml exhibiting at least 50% neutralization (HCVpp) [2] [µg/mL]	lowest concentration of antibody in µg/ml exhibiting at least 50% neutralization (HCVpp) [3] [µg/mL]	lowest concentration of antibody in µg/ml exhibiting at least 50% neutralization (HCVpp) [4] [µg/mL]	lowest concentration of antibody in µg/ml exhibiting at least 50% neutralization (HCVpp) [5] [µg/mL]	lowest concentration of antibody in µg/ml exhibiting at least 50% neutralization (HCVpp) [6] [µg/mL]	lowest concentration of antibody in µg/ml exhibiting at least 50% neutralization (HCVpp) [7] [µg/mL]	Kd (IGP 2254) [pM]	koff (IGP 2254) [s⁻¹]	kon (IGP 2254) [M⁻¹ s⁻¹]	binding result (IGP 2138)	binding result (IGP 2241)	binding result (IGP 2137)
B1	3.1	< 50	6.2	50	< 1	6.2	< 1	150	0.000357	2.35e+06	–	–	–
B2	< 1	> 50	3.1	50	6.2	12.5	1.6	200	0.000305	1.54e+06	no binding (tested: 1.25 µg/ml)	no binding (tested: 1.25 µg/ml)	no binding (tested: 1.25 µg/ml)
